Patent US20160272683A1 (Novo Nordisk, published 2016)
Numbered stars: 1 amine (or outer) side, 2 acyl side, 3 side chain; on linkers, the order of the positions; unused ones are H or OH. Ends that are not written are not given here. * marks the point of attachment. C20 diacid = O=C(O)CCCCCCCCCCCCCCCCCCC(=O)*; γGlu = O=C(O)[C@H](CCC(=O)[*:2])N[*:1]

T1: human calcitonin receptor (human, UniProt P30988 25-474)
T1 construct: whole, on cells; also called hCT-R; hCTR
T1 sequence (looked up): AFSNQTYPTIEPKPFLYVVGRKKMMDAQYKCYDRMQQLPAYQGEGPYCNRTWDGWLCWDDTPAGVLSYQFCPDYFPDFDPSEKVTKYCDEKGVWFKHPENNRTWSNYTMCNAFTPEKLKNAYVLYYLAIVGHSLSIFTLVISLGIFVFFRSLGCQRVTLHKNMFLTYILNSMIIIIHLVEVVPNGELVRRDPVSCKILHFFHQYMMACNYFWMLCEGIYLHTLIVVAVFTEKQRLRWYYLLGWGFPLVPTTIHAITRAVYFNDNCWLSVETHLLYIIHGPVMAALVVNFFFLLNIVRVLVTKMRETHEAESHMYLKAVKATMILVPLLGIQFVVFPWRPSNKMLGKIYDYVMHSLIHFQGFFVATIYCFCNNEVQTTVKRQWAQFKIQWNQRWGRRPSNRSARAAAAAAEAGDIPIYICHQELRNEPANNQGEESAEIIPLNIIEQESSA


Molecular target: T1, human calcitonin receptor
Assay: whole-cell competition vs 125I-human calcitonin (Assay VIIa)
Procedure, shortened: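 BHK tk'ts 13 cells stably co-expressing human calcitonin receptor and a CRE-luciferase reporter, seeded overnight at 37 °C. Bound tracer counted by scintillation after cold HBSS washes and NaOH/SDS lysis; IC₅₀ from one-site competition fit taken as receptor affinity.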

Row | Binder | IC50
1 | {C20 diacid-γGlu}-LSGLSTAVLGRLSAELHELSTYPRTETGSGTY-NH2 (SMILES CC(C)C[C@H](NC(=O)CC[C@H](NC(=O)CCCCCCCCCCCCCCCCCCC(=O)O)C(=O)O)C(=O)N[C@@H](CO)C(=O)NCC(=O)N[C@@H](CC(C)C)C(=O)N[C@@H](CO)C(=O)N[C@H](C(=O)N[C@@H](C)C(=O)N[C@H](C(=O)N[C@@H](CC(C)C)C(=O)NCC(=O)N[C@@H](CCCNC(=N)N)C(=O)N[C@@H](CC(C)C)C(=O)N[C@@H](CO)C(=O)N[C@@H](C)C(=O)N[C@@H](CCC(=O)O)C(=O)N[C@@H](CC(C)C)C(=O)N[C@@H](Cc1c[nH]cn1)C(=O)N[C@@H](CCC(=O)O)C(=O)N[C@@H](CC(C)C)C(=O)N[C@@H](CO)C(=O)N[C@H](C(=O)N[C@@H](Cc1ccc(O)cc1)C(=O)N1CCC[C@H]1C(=O)N[C@@H](CCCNC(=N)N)C(=O)N[C@H](C(=O)N[C@@H](CCC(=O)O)C(=O)N[C@H](C(=O)NCC(=O)N[C@@H](CO)C(=O)NCC(=O)N[C@H](C(=O)N[C@@H](Cc1ccc(O)cc1)C(N)=O)[C@@H](C)O)[C@@H](C)O)[C@@H](C)O)[C@@H](C)O)C(C)C)[C@@H](C)O) [[N-terminal(C20 diacid-gGlu), des1, 2L, 4G, 9V, 21S, 23Y, 30S, 31G, 32T, 33Y]mimylin] | 5.62 nM
2 | {C20 diacid-γGlu}-ASGLSTLVLGRLSQELHELQTYPRTETGSQTY-NH2 (SMILES CC(C)C[C@H](NC(=O)CNC(=O)[C@H](CO)NC(=O)[C@H](C)NC(=O)CC[C@H](NC(=O)CCCCCCCCCCCCCCCCCCC(=O)O)C(=O)O)C(=O)N[C@@H](CO)C(=O)N[C@H](C(=O)N[C@@H](CC(C)C)C(=O)N[C@H](C(=O)N[C@@H](CC(C)C)C(=O)NCC(=O)N[C@@H](CCCNC(=N)N)C(=O)N[C@@H](CC(C)C)C(=O)N[C@@H](CO)C(=O)N[C@@H](CCC(N)=O)C(=O)N[C@@H](CCC(=O)O)C(=O)N[C@@H](CC(C)C)C(=O)N[C@@H](Cc1c[nH]cn1)C(=O)N[C@@H](CCC(=O)O)C(=O)N[C@@H](CC(C)C)C(=O)N[C@@H](CCC(N)=O)C(=O)N[C@H](C(=O)N[C@@H](Cc1ccc(O)cc1)C(=O)N1CCC[C@H]1C(=O)N[C@@H](CCCNC(=N)N)C(=O)N[C@H](C(=O)N[C@@H](CCC(=O)O)C(=O)N[C@H](C(=O)NCC(=O)N[C@@H](CO)C(=O)N[C@@H](CCC(N)=O)C(=O)N[C@H](C(=O)N[C@@H](Cc1ccc(O)cc1)C(N)=O)[C@@H](C)O)[C@@H](C)O)[C@@H](C)O)[C@@H](C)O)C(C)C)[C@@H](C)O) [[N-terminal(C20 diacid-gGlu), des1, 4G, 8L, 9V, 15Q, 21Q, 23Y, 30S, 31Q, 32T, 33Y]mimylin] | 1.83 nM
3 | {C20 diacid-γGlu}-ASGLSTATLGRLSQELHELQTYPPTETGSGTY-NH2 (SMILES CC(C)C[C@H](NC(=O)CNC(=O)[C@H](CO)NC(=O)[C@H](C)NC(=O)CC[C@H](NC(=O)CCCCCCCCCCCCCCCCCCC(=O)O)C(=O)O)C(=O)N[C@@H](CO)C(=O)N[C@H](C(=O)N[C@@H](C)C(=O)N[C@H](C(=O)N[C@@H](CC(C)C)C(=O)NCC(=O)N[C@@H](CCCNC(=N)N)C(=O)N[C@@H](CC(C)C)C(=O)N[C@@H](CO)C(=O)N[C@@H](CCC(N)=O)C(=O)N[C@@H](CCC(=O)O)C(=O)N[C@@H](CC(C)C)C(=O)N[C@@H](Cc1c[nH]cn1)C(=O)N[C@@H](CCC(=O)O)C(=O)N[C@@H](CC(C)C)C(=O)N[C@@H](CCC(N)=O)C(=O)N[C@H](C(=O)N[C@@H](Cc1ccc(O)cc1)C(=O)N1CCC[C@H]1C(=O)N1CCC[C@H]1C(=O)N[C@H](C(=O)N[C@@H](CCC(=O)O)C(=O)N[C@H](C(=O)NCC(=O)N[C@@H](CO)C(=O)NCC(=O)N[C@H](C(=O)N[C@@H](Cc1ccc(O)cc1)C(N)=O)[C@@H](C)O)[C@@H](C)O)[C@@H](C)O)[C@@H](C)O)[C@@H](C)O)[C@@H](C)O) [[N-terminal(C20 diacid-gGlu), des1, 4G, 9T, 15Q, 21Q, 23Y, 25P, 30S, 31G, 32T, 33Y]mimylin] | 0.2 nM
4 | {C20 diacid-γGlu}-ASGLSTAALGRLSQELHELQTYPHTETGSGTY-NH2 (SMILES CC(C)C[C@H](NC(=O)CNC(=O)[C@H](CO)NC(=O)[C@H](C)NC(=O)CC[C@H](NC(=O)CCCCCCCCCCCCCCCCCCC(=O)O)C(=O)O)C(=O)N[C@@H](CO)C(=O)N[C@H](C(=O)N[C@@H](C)C(=O)N[C@@H](C)C(=O)N[C@@H](CC(C)C)C(=O)NCC(=O)N[C@@H](CCCNC(=N)N)C(=O)N[C@@H](CC(C)C)C(=O)N[C@@H](CO)C(=O)N[C@@H](CCC(N)=O)C(=O)N[C@@H](CCC(=O)O)C(=O)N[C@@H](CC(C)C)C(=O)N[C@@H](Cc1c[nH]cn1)C(=O)N[C@@H](CCC(=O)O)C(=O)N[C@@H](CC(C)C)C(=O)N[C@@H](CCC(N)=O)C(=O)N[C@H](C(=O)N[C@@H](Cc1ccc(O)cc1)C(=O)N1CCC[C@H]1C(=O)N[C@@H](Cc1c[nH]cn1)C(=O)N[C@H](C(=O)N[C@@H](CCC(=O)O)C(=O)N[C@H](C(=O)NCC(=O)N[C@@H](CO)C(=O)NCC(=O)N[C@H](C(=O)N[C@@H](Cc1ccc(O)cc1)C(N)=O)[C@@H](C)O)[C@@H](C)O)[C@@H](C)O)[C@@H](C)O)[C@@H](C)O) [[N-terminal(C20 diacid-gGlu), des1, 4G, 15Q, 21Q, 23Y, 25H, 30S, 31G, 32T, 33Y]mimylin] | 0.45 nM
5 | {C20 diacid-γGlu}-ASGLSTAALGRLSTELHELETYPRTETGSGTY-NH2 (SMILES CC(C)C[C@H](NC(=O)CNC(=O)[C@H](CO)NC(=O)[C@H](C)NC(=O)CC[C@H](NC(=O)CCCCCCCCCCCCCCCCCCC(=O)O)C(=O)O)C(=O)N[C@@H](CO)C(=O)N[C@H](C(=O)N[C@@H](C)C(=O)N[C@@H](C)C(=O)N[C@@H](CC(C)C)C(=O)NCC(=O)N[C@@H](CCCNC(=N)N)C(=O)N[C@@H](CC(C)C)C(=O)N[C@@H](CO)C(=O)N[C@H](C(=O)N[C@@H](CCC(=O)O)C(=O)N[C@@H](CC(C)C)C(=O)N[C@@H](Cc1c[nH]cn1)C(=O)N[C@@H](CCC(=O)O)C(=O)N[C@@H](CC(C)C)C(=O)N[C@@H](CCC(=O)O)C(=O)N[C@H](C(=O)N[C@@H](Cc1ccc(O)cc1)C(=O)N1CCC[C@H]1C(=O)N[C@@H](CCCNC(=N)N)C(=O)N[C@H](C(=O)N[C@@H](CCC(=O)O)C(=O)N[C@H](C(=O)NCC(=O)N[C@@H](CO)C(=O)NCC(=O)N[C@H](C(=O)N[C@@H](Cc1ccc(O)cc1)C(N)=O)[C@@H](C)O)[C@@H](C)O)[C@@H](C)O)[C@@H](C)O)[C@@H](C)O)[C@@H](C)O) [[N-terminal(C20 diacid-gGlu), des1, 4G, 15T, 21E, 23Y, 30S, 31G, 32T, 33Y]mimylin] | 0.547 nM
6 | {C20 diacid-γGlu}-ASGLSTAVLGRLSQELHELQTYPRTETGSATY-NH2 (SMILES CC(C)C[C@H](NC(=O)CNC(=O)[C@H](CO)NC(=O)[C@H](C)NC(=O)CC[C@H](NC(=O)CCCCCCCCCCCCCCCCCCC(=O)O)C(=O)O)C(=O)N[C@@H](CO)C(=O)N[C@H](C(=O)N[C@@H](C)C(=O)N[C@H](C(=O)N[C@@H](CC(C)C)C(=O)NCC(=O)N[C@@H](CCCNC(=N)N)C(=O)N[C@@H](CC(C)C)C(=O)N[C@@H](CO)C(=O)N[C@@H](CCC(N)=O)C(=O)N[C@@H](CCC(=O)O)C(=O)N[C@@H](CC(C)C)C(=O)N[C@@H](Cc1c[nH]cn1)C(=O)N[C@@H](CCC(=O)O)C(=O)N[C@@H](CC(C)C)C(=O)N[C@@H](CCC(N)=O)C(=O)N[C@H](C(=O)N[C@@H](Cc1ccc(O)cc1)C(=O)N1CCC[C@H]1C(=O)N[C@@H](CCCNC(=N)N)C(=O)N[C@H](C(=O)N[C@@H](CCC(=O)O)C(=O)N[C@H](C(=O)NCC(=O)N[C@@H](CO)C(=O)N[C@@H](C)C(=O)N[C@H](C(=O)N[C@@H](Cc1ccc(O)cc1)C(N)=O)[C@@H](C)O)[C@@H](C)O)[C@@H](C)O)[C@@H](C)O)C(C)C)[C@@H](C)O) [[N-terminal(C20 diacid-gGlu), des1, 4G, 9V, 15Q, 21Q, 23Y, 30S, 31A, 32T, 33Y]mimylin] | 0.318 nM

The remaining binders from weak to strong by IC50, led by results:

Row | IC50 | Binder
7 | 0.959 nM | LSGLSTAVLGRLSQELHELQTYPRTETGSQTY-NH2 (backbone without side chain) [[des1, 2L, 4G, 9V, 15Q, 21Q, 23Y, 30S, 31Q, 32T, 33Y]mimylin]
8 | 0.326 nM | {C20 diacid-γGlu}-ASELSTAVLGRLSQELHELQTYPRTETGSGTY-NH2 (SMILES CC(C)C[C@H](NC(=O)[C@H](CCCNC(=N)N)NC(=O)CNC(=O)[C@H](CC(C)C)NC(=O)[C@@H](NC(=O)[C@H](C)NC(=O)[C@@H](NC(=O)[C@H](CO)NC(=O)[C@H](CC(C)C)NC(=O)[C@H](CCC(=O)O)NC(=O)[C@H](CO)NC(=O)[C@H](C)NC(=O)CC[C@H](NC(=O)CCCCCCCCCCCCCCCCCCC(=O)O)C(=O)O)[C@@H](C)O)C(C)C)C(=O)N[C@@H](CO)C(=O)N[C@@H](CCC(N)=O)C(=O)N[C@@H](CCC(=O)O)C(=O)N[C@@H](CC(C)C)C(=O)N[C@@H](Cc1c[nH]cn1)C(=O)N[C@@H](CCC(=O)O)C(=O)N[C@@H](CC(C)C)C(=O)N[C@@H](CCC(N)=O)C(=O)N[C@H](C(=O)N[C@@H](Cc1ccc(O)cc1)C(=O)N1CCC[C@H]1C(=O)N[C@@H](CCCNC(=N)N)C(=O)N[C@H](C(=O)N[C@@H](CCC(=O)O)C(=O)N[C@H](C(=O)NCC(=O)N[C@@H](CO)C(=O)NCC(=O)N[C@H](C(=O)N[C@@H](Cc1ccc(O)cc1)C(N)=O)[C@@H](C)O)[C@@H](C)O)[C@@H](C)O)[C@@H](C)O) [[N-terminal(C20 diacid-gGlu), des1, 9V, 15Q, 21Q, 23Y, 30S, 31G, 32T, 33Y]mimylin]
9 | 0.312 nM | {C20 diacid-γGlu}-ASGLSTATLGRLSQELHELQTYPRTETGSGTY-NH2 [[N-terminal(C20 diacid-gGlu), des1, 4G, 9T, 15Q, 21Q, 23Y, 30S, 31G, 32T, 33Y]mimylin]
